Values quoted from earlier work in patent US20170136096A1, “Insulin-Containing Prolonged-Action Preparation” (OBSCHESTVO S OGRANCHENNOJ OTVETCTVENNOSTU "BIOSABTEK", priority 2014, published 2017).

Settings: administered under the skin, injection solution pH 4

glargine
duration of flat time-concentration profile: ≤ 24 h
